Measured values taken from patent US20240287186A1.

Target: CD3 (target of Table E-1) (UniProt P07766)
Assay: Biacore (SPR; format not stated)

## Anti-CD3 Fab OKT3
  Kd: 9.62 nM
